Test results taken from patent US5534428.

Test system: SstI restriction endonuclease (Streptomyces stanford ATCC 29415)
Experiment: cleavage_in_vitro
Conditions: pSst105 crude extract; REact 2 buffer, 37 C, 1 h; assay substrate Ad-2 DNA per Example 1.7

Adenovirus-2 DNA gave an activity (units per g cells) of over 400000.
